Measurements published in PMC8808741.
Changes are numbered by the printed parent chain.

B1: T18.3 (structured_RNA)
RNA: GGACUUGGAUAACCUCACCGCAAUGGCGGCUUGUCAGACGACUCGCUGAGGAUCCGAG
modifications: all C and U 2'-fluoro
B2: Mut1 (structured_RNA)
RNA: B1 RNA with C30A, U31G, U32G
modifications: all C and U 2'-fluoro
B3: T18.3-Bio (structured_RNA)
RNA: B1 RNA
modifications: all C and U 2'-fluoro

Assays:
FVa (activated factor V) [1] = biological target: T1, FVa (activated factor V) (human, UniProt P12259;P12259 29-737;1574-2224); experiment: filter binding
FXa = FXa (UniProt P00742;P00742 41-179;235-488); experiment: filter binding
[2] = biological target: T2, modified FV (B-domain-truncated factor V) (human, UniProt P12259 29-838+1520-2224, R737Q;R1573Q;internal_change); experiment: filter binding
prothrombin (FII) = prothrombin (FII) (UniProt P00734 44-622); experiment: filter binding
FX = FX (UniProt P00742;P00742 41-179;183-488); experiment: filter binding
FVIII = FVIII (UniProt P00451 20-2351); experiment: filter binding
thrombin (FIIa) = thrombin (FIIa) (UniProt P00734;P00734 315-363;364-622); experiment: filter binding
FVa (activated factor V) [3] = biological target: T1, FVa (activated factor V); experiment: filter binding; remark: listed apart in the source
FVa heavy chain = FVa heavy chain (UniProt P12259 29-737); experiment: SPR
FVa (activated factor V) [4] = biological target: T1, FVa (activated factor V); experiment: SPR
[5] = biological target: T2, modified FV (B-domain-truncated factor …); experiment: SPR
FVa light chain = FVa light chain (UniProt P12259 1574-2224); experiment: SPR

Chain of FVIII (P00451 20-2351): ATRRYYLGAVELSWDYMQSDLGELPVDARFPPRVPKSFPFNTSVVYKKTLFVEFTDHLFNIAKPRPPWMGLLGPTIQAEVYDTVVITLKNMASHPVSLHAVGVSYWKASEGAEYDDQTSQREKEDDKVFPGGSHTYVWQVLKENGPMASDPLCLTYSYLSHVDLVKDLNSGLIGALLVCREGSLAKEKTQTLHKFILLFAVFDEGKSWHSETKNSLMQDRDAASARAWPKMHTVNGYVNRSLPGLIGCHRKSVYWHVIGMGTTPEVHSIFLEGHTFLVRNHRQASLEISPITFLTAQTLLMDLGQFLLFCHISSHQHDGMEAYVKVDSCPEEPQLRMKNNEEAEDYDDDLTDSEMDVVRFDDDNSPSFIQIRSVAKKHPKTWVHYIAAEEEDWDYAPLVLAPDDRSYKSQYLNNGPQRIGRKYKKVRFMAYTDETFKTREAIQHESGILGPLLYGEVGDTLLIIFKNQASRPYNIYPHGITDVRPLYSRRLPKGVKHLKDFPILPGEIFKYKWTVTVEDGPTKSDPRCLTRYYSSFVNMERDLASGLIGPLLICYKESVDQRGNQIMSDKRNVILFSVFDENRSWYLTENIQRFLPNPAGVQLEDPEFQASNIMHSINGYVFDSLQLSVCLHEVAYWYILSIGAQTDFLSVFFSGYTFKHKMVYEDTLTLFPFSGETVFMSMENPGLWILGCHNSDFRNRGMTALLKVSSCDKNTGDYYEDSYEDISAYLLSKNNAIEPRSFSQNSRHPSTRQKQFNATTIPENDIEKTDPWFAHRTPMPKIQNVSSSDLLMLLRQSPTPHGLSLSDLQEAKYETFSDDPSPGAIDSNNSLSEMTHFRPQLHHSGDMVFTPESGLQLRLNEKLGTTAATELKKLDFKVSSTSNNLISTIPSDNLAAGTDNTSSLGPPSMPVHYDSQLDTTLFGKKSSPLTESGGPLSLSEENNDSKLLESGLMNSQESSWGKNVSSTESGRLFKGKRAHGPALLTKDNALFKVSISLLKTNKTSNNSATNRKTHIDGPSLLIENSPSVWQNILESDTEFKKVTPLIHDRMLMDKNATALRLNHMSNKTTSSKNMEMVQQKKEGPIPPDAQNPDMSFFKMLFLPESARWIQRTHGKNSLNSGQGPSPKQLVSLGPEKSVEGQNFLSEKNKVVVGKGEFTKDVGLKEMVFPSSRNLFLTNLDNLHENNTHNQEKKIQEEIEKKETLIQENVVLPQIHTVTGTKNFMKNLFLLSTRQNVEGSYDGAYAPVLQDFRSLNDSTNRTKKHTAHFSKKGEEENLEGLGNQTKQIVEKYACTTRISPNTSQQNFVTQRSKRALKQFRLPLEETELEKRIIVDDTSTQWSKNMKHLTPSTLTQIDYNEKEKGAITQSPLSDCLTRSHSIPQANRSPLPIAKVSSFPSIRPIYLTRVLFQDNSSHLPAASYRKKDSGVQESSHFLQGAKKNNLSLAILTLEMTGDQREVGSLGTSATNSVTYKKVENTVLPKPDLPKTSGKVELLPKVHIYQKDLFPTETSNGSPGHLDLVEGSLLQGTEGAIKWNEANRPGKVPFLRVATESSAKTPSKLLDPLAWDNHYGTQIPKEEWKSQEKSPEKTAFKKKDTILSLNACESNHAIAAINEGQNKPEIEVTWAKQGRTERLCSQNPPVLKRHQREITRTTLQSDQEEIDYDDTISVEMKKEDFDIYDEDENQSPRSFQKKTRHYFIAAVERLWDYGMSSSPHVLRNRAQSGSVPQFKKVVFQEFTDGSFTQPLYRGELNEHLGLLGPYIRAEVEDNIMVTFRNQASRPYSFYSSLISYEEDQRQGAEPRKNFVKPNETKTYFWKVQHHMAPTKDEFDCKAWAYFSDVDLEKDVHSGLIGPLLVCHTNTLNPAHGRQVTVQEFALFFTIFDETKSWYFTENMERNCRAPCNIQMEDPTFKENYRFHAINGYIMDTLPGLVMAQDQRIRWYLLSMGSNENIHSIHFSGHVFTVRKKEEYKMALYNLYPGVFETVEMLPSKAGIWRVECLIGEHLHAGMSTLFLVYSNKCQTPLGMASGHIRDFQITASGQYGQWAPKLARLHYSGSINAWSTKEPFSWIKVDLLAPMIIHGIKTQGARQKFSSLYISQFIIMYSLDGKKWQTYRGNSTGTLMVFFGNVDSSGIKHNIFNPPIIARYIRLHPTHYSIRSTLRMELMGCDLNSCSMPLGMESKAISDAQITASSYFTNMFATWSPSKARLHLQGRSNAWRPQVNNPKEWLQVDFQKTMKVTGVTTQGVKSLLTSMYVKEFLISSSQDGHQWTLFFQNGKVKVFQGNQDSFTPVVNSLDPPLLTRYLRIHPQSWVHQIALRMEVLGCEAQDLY
Chain of FX (P00742 41-179, chain 1 of 2): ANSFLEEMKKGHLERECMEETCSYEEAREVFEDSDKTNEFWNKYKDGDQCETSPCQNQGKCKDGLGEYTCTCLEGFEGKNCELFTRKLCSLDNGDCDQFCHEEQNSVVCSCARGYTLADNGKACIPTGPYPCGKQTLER
Chain of FX (P00742 183-488, chain 2 of 2): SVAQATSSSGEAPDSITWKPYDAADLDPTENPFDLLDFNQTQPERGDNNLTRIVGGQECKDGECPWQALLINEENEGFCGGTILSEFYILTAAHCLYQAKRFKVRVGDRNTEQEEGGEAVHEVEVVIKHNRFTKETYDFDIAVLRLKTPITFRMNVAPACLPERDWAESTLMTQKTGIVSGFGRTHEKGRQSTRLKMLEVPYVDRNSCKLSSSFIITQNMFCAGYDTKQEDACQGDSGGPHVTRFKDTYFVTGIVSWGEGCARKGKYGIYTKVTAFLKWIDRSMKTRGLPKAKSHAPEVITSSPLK
Chain of FXa (P00742 41-179, chain 1 of 2): as the sequence (P00742 41-179, chain 1 of 2) above
Chain of FXa (P00742 235-488, chain 2 of 2): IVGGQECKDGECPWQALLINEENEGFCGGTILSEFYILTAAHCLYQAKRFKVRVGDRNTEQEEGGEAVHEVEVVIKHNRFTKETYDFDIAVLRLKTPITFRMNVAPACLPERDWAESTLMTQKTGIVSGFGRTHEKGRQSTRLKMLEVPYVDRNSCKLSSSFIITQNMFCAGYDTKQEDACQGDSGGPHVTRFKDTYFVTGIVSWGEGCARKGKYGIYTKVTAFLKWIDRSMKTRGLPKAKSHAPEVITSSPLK

Binder | Kd (FVa (activated factor V) [1]) [nM] | binding result (FXa) | Kd [2] [nM] | binding result (prothrombin (FII)) | binding result (FX) | binding result (FVIII) | binding result (thrombin (FIIa)) | Kd (FVa (activated factor V) [3]) [nM] | Kd (FVa heavy chain) [nM] | Kd (FVa (activated factor V) [4]) [nM] | Kd [5] [nM] | Kd (FVa light chain) [nM]
B1 | 0.99 | no binding | 28 | no binding | no binding | no binding | no binding | – | – | – | – | –
B2 | – | – | 410 ± 46 | – | – | – | – | 359 ± 323 | – | – | – | –
B3 | – | – | – | – | – | – | – | – | 113 ± 43 | 4.73 ± 0.69 | 11.4 ± 3 | 3.33 ± 0.69
